doi:10.1101/2023.01.17.524225 (bioRxiv, 2023)
Primed or numbered codes have the meaning given here. No end group written: not given here. FITC′ = not defined here

Target: T1, GID4 (aa 116-300) (human, UniProt Q8IVV7 116-300)
T1 sequence: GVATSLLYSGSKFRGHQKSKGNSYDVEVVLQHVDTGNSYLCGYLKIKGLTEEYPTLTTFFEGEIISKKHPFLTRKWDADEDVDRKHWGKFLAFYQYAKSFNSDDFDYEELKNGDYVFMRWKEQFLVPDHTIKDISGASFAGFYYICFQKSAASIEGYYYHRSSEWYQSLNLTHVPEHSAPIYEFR
Test: fluorescence polarisation

B1: C-terminally FITC-labelled PGLWKS peptide (peptide)
peptide: PGLWKS-{FITC′}
- binding result: binds
